Source: paper PMC13397619

B1: NLV2 TCR alpha chain (CDR3α only) (parent)
chain: AGPMKTSYDKVI
partner: NLVGMVATV

Variants of: B1
Assay: T-Switch: Jurkat TCRβ−/− cells expressing a CDR3 saturation-mutagenesis library, stained with two peptide-HLA-A*02:01 tetramers (original and novel peptide) plus anti-CD3, FACS-sorted into four gates, gDNA sequenced
Conditions: with HLA-A*02:01 with peptide … (NLV 2-2, the original bait), tetramers 1 µg/mL, 30 min on ice, DP and SW gates expanded about 10 days between rounds ('two to three rounds of selection' in the Methods), gate SP: higher = more of the variant in the gate that binds the original peptide and not the novel one = retained original binding. Fold enrichment of the CDR3 variant in one FACS gate of a two-tetra, unresolved parent, parent is a CDR3 fragment, scale: fold enrichment, numbering: sequential-on-construct, sequence …

| Variant | enrichment |
| --- | --- |
| […] (CDR3 as printed); S7Y derived by comparing it with the table's wild-type CDR3 AGPMKTSYDKVI | 0 |
| […] (CDR3 as printed); D9M derived by comparing it with the table's wild-type CDR3 AGPMKTSYDKVI | 0.433 |
| […] (CDR3 as printed); M4D derived by comparing it with the table's wild-type CDR3 AGPMKTSYDKVI | 0 |
| […] (CDR3 as printed); K10I derived by comparing it with the table's wild-type CDR3 AGPMKTSYDKVI | 0 |
| […] (CDR3 as printed); D9K derived by comparing it with the table's wild-type CDR3 AGPMKTSYDKVI | 0 |
| […] (CDR3 as printed); Y8F derived by comparing it with the table's wild-type CDR3 AGPMKTSYDKVI | 0 |
| […] (CDR3 as printed); V11H derived by comparing it with the table's wild-type CDR3 AGPMKTSYDKVI | 0 |
| […] (CDR3 as printed); K10E derived by comparing it with the table's wild-type CDR3 AGPMKTSYDKVI | 0 |
| […] (CDR3 as printed); I12T derived by comparing it with the table's wild-type CDR3 AGPMKTSYDKVI | 0 |
| […] (CDR3 as printed); G2Q derived by comparing it with the table's wild-type CDR3 AGPMKTSYDKVI | 0 |
| […] (CDR3 as printed); T6I derived by comparing it with the table's wild-type CDR3 AGPMKTSYDKVI | 9.21 |
| […] (CDR3 as printed); G2K derived by comparing it with the table's wild-type CDR3 AGPMKTSYDKVI | 0 |
| […] (CDR3 as printed); M4V derived by comparing it with the table's wild-type CDR3 AGPMKTSYDKVI | 18.1 |
| […] (CDR3 as printed); V11C derived by comparing it with the table's wild-type CDR3 AGPMKTSYDKVI | 0 |
| […] (CDR3 as printed); Y8P derived by comparing it with the table's wild-type CDR3 AGPMKTSYDKVI | 0 |
| […] (CDR3 as printed); Y8D derived by comparing it with the table's wild-type CDR3 AGPMKTSYDKVI | 0 |
| […] (CDR3 as printed); V11R derived by comparing it with the table's wild-type CDR3 AGPMKTSYDKVI | 0 |
| […] (CDR3 as printed); M4T derived by comparing it with the table's wild-type CDR3 AGPMKTSYDKVI | 12.4 |
| […] (CDR3 as printed); T6V derived by comparing it with the table's wild-type CDR3 AGPMKTSYDKVI | 22.1 |
| […] (CDR3 as printed); M4P derived by comparing it with the table's wild-type CDR3 AGPMKTSYDKVI | 0 |
| […] (CDR3 as printed); Y8T derived by comparing it with the table's wild-type CDR3 AGPMKTSYDKVI | 0.942 |

| Variant | enrichment |
| --- | --- |
| […] (CDR3 as printed); S7V derived by comparing it with the table's wild-type CDR3 AGPMKTSYDKVI | 0 |
| […] (CDR3 as printed); V11P derived by comparing it with the table's wild-type CDR3 AGPMKTSYDKVI | 0 |
| […] (CDR3 as printed); V11W derived by comparing it with the table's wild-type CDR3 AGPMKTSYDKVI | 0 |
| […] (CDR3 as printed); Y8N derived by comparing it with the table's wild-type CDR3 AGPMKTSYDKVI | 0 |
| […] (CDR3 as printed); S7D derived by comparing it with the table's wild-type CDR3 AGPMKTSYDKVI | 0 |
| […] (CDR3 as printed); P3Y derived by comparing it with the table's wild-type CDR3 AGPMKTSYDKVI | 0 |
| […] (CDR3 as printed); I12H derived by comparing it with the table's wild-type CDR3 AGPMKTSYDKVI | 0 |
| […] (CDR3 as printed); P3F derived by comparing it with the table's wild-type CDR3 AGPMKTSYDKVI | 0 |
| […] (CDR3 as printed); M4I derived by comparing it with the table's wild-type CDR3 AGPMKTSYDKVI | 18.9 |
| […] (CDR3 as printed); A1Y derived by comparing it with the table's wild-type CDR3 AGPMKTSYDKVI | 0.416 |
| […] (CDR3 as printed); D9E derived by comparing it with the table's wild-type CDR3 AGPMKTSYDKVI | 0 |
| […] (CDR3 as printed); Y8I derived by comparing it with the table's wild-type CDR3 AGPMKTSYDKVI | 0 |
| […] (CDR3 as printed); S7T derived by comparing it with the table's wild-type CDR3 AGPMKTSYDKVI | 0 |
| […] (CDR3 as printed); D9I derived by comparing it with the table's wild-type CDR3 AGPMKTSYDKVI | 0 |
| […] (CDR3 as printed); P3W derived by comparing it with the table's wild-type CDR3 AGPMKTSYDKVI | 0 |
| […] (CDR3 as printed); G2E derived by comparing it with the table's wild-type CDR3 AGPMKTSYDKVI | 0.387 |
| […] (CDR3 as printed); Y8A derived by comparing it with the table's wild-type CDR3 AGPMKTSYDKVI | 0 |
| […] (CDR3 as printed); V11I derived by comparing it with the table's wild-type CDR3 AGPMKTSYDKVI | 5 |
| […] (CDR3 as printed); V11K derived by comparing it with the table's wild-type CDR3 AGPMKTSYDKVI | 0 |
| […] (CDR3 as printed); K10R derived by comparing it with the table's wild-type CDR3 AGPMKTSYDKVI | 0 |
| […] (CDR3 as printed); I12Q derived by comparing it with the table's wild-type CDR3 AGPMKTSYDKVI | 0 |

| Variant | enrichment |
| --- | --- |
| […] (CDR3 as printed); D9C derived by comparing it with the table's wild-type CDR3 AGPMKTSYDKVI | 0 |
| […] (CDR3 as printed); K10A derived by comparing it with the table's wild-type CDR3 AGPMKTSYDKVI | 0 |
| […] (CDR3 as printed); P3L derived by comparing it with the table's wild-type CDR3 AGPMKTSYDKVI | 0 |
| […] (CDR3 as printed); T6A derived by comparing it with the table's wild-type CDR3 AGPMKTSYDKVI | 0 |
| […] (CDR3 as printed); I12K derived by comparing it with the table's wild-type CDR3 AGPMKTSYDKVI | 8.2 |
| […] (CDR3 as printed); S7L derived by comparing it with the table's wild-type CDR3 AGPMKTSYDKVI | 0 |
| […] (CDR3 as printed); V11D derived by comparing it with the table's wild-type CDR3 AGPMKTSYDKVI | 0.11 |
| […] (CDR3 as printed); T6G derived by comparing it with the table's wild-type CDR3 AGPMKTSYDKVI | 0 |
| […] (CDR3 as printed); I12Y derived by comparing it with the table's wild-type CDR3 AGPMKTSYDKVI | 0 |
| […] (CDR3 as printed); D9A derived by comparing it with the table's wild-type CDR3 AGPMKTSYDKVI | 0 |
| […] (CDR3 as printed); K10V derived by comparing it with the table's wild-type CDR3 AGPMKTSYDKVI | 0 |
| […] (CDR3 as printed); K5Q derived by comparing it with the table's wild-type CDR3 AGPMKTSYDKVI | 7.86 |
| […] (CDR3 as printed); D9P derived by comparing it with the table's wild-type CDR3 AGPMKTSYDKVI | 0 |
| […] (CDR3 as printed); K5M derived by comparing it with the table's wild-type CDR3 AGPMKTSYDKVI | 4.77 |
| […] (CDR3 as printed); G2W derived by comparing it with the table's wild-type CDR3 AGPMKTSYDKVI | 0 |
| […] (CDR3 as printed); V11E derived by comparing it with the table's wild-type CDR3 AGPMKTSYDKVI | 0 |
| […] (CDR3 as printed); P3D derived by comparing it with the table's wild-type CDR3 AGPMKTSYDKVI | 0 |
| […] (CDR3 as printed); P3V derived by comparing it with the table's wild-type CDR3 AGPMKTSYDKVI | 0.124 |
| […] (CDR3 as printed); S7R derived by comparing it with the table's wild-type CDR3 AGPMKTSYDKVI | 0 |
| […] (CDR3 as printed); D9F derived by comparing it with the table's wild-type CDR3 AGPMKTSYDKVI | 0 |
| […] (CDR3 as printed); S7K derived by comparing it with the table's wild-type CDR3 AGPMKTSYDKVI | 0 |

| Variant | enrichment |
| --- | --- |
| […] (CDR3 as printed); K10D derived by comparing it with the table's wild-type CDR3 AGPMKTSYDKVI | 0 |
| […] (CDR3 as printed); Y8C derived by comparing it with the table's wild-type CDR3 AGPMKTSYDKVI | 0 |
| […] (CDR3 as printed); K10N derived by comparing it with the table's wild-type CDR3 AGPMKTSYDKVI | 0 |
| […] (CDR3 as printed); K5T derived by comparing it with the table's wild-type CDR3 AGPMKTSYDKVI | 4.91 |
| […] (CDR3 as printed); M4W derived by comparing it with the table's wild-type CDR3 AGPMKTSYDKVI | 0 |
| […] (CDR3 as printed); D9L derived by comparing it with the table's wild-type CDR3 AGPMKTSYDKVI | 0 |
| […] (CDR3 as printed); K5A derived by comparing it with the table's wild-type CDR3 AGPMKTSYDKVI | 23.5 |
| […] (CDR3 as printed); T6E derived by comparing it with the table's wild-type CDR3 AGPMKTSYDKVI | 0 |
| […] (CDR3 as printed); Y8Q derived by comparing it with the table's wild-type CDR3 AGPMKTSYDKVI | 0 |
| […] (CDR3 as printed); S7Q derived by comparing it with the table's wild-type CDR3 AGPMKTSYDKVI | 0 |
| […] (CDR3 as printed); Y8R derived by comparing it with the table's wild-type CDR3 AGPMKTSYDKVI | 0 |
| […] (CDR3 as printed); V11F derived by comparing it with the table's wild-type CDR3 AGPMKTSYDKVI | 0 |
| […] (CDR3 as printed); I12V derived by comparing it with the table's wild-type CDR3 AGPMKTSYDKVI | 11.6 |
| […] (CDR3 as printed); M4H derived by comparing it with the table's wild-type CDR3 AGPMKTSYDKVI | 2.65 |
| […] (CDR3 as printed); V11S derived by comparing it with the table's wild-type CDR3 AGPMKTSYDKVI | 1.91 |
| […] (CDR3 as printed); K10P derived by comparing it with the table's wild-type CDR3 AGPMKTSYDKVI | 0 |
| […] (CDR3 as printed); S7F derived by comparing it with the table's wild-type CDR3 AGPMKTSYDKVI | 0 |
| […] (CDR3 as printed); Y8K derived by comparing it with the table's wild-type CDR3 AGPMKTSYDKVI | 0 |
| […] (CDR3 as printed); K10F derived by comparing it with the table's wild-type CDR3 AGPMKTSYDKVI | 0 |
| […] (CDR3 as printed); M4R derived by comparing it with the table's wild-type CDR3 AGPMKTSYDKVI | 0 |
| […] (CDR3 as printed); P3K derived by comparing it with the table's wild-type CDR3 AGPMKTSYDKVI | 0 |
